± gives the standard deviation of the averaged measurements.
Tested on: ATP
Test: switch fluorescence ratio, 500 uM ATP over buffer (Cy3 cluster intensity, sum of 5 cycles each) (fold (ratio)); higher = stronger signal-on switching upon ATP binding; sequences stand for … in TCGTCGGCAGCGTCAGATGTGTATAAGAGACAGTTTTTTTTTTTTTTTTTTTTTTTTT…TC
Details: aptamer strand: ATP DNA aptamer (quencher-CACCTGGGGGAGTATTGCGGAGGAAGG + anchor), 100 nM annealed; ATP concentration: 500 uM
In short: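 The quencher-labelled ATP aptamer, at 100 nM, was annealed to Cy3-labelled switching-strand clusters on a modified Illumina MiSeq flow-cell. The clusters were imaged in selection buffer, then after 15 min with 500 uM ATP at 22 °C, and this buffer/ATP cycle ran five times with NaOH stripping and re-annealing between runs. Per-cluster fluorescence ratios, summed target-cycle over summed buffer-cycle Cy3 intensity, were averaged per switch-domain sequence. Clusters outside 100-1000 RFU were excluded.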
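Further: ATP exposure 15 min at 22 °C before imaging.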

AGAGGATGTA
switch fluorescence ratio: 1 ± 0.056

TAGTCATGAG
switch fluorescence ratio: 0.981 ± 0.017

AGTAAGATTG
switch fluorescence ratio: 0.9889 ± 0.0026

AGAGATACTT
switch fluorescence ratio: 1.01 ± 0.035

TTACTAGGCC
switch fluorescence ratio: 1.01 ± 0.034

CCAATGTATG
switch fluorescence ratio: 0.998 ± 0.044

AGTGCGGGGC
switch fluorescence ratio: 1.07 ± 0.013

ATGAGTGGTG
switch fluorescence ratio: 1.019 ± 0.0077

AGTGGGAGTT
switch fluorescence ratio: 1.002 ± 0.0081

CGGGGGTTGA
switch fluorescence ratio: 1.03 ± 0.03

AAGACGGATT
switch fluorescence ratio: 0.9945 ± 0.0066

TTCCATATCG
switch fluorescence ratio: 1.03 ± 0.061

GGGGAATTAA
switch fluorescence ratio: 0.99 ± 0.018

GGGGACAGGT
switch fluorescence ratio: 1.03 ± 0.0057

TATTTTACTA
switch fluorescence ratio: 1.01 ± 0.032

AAGTCGCATT
switch fluorescence ratio: 1.03 ± 0.014

TTTTTAGTTG
switch fluorescence ratio: 1.12 ± 0.41

TGGGCCAGTG
switch fluorescence ratio: 1.05 ± 0.014

TACTAGAACT
switch fluorescence ratio: 1.03 ± 0.035

ATGCACAGAT
switch fluorescence ratio: 0.994 ± 0.027

TTTTTTAATG
switch fluorescence ratio: 1 ± 0.033

GCTGTAACG
switch fluorescence ratio: 1 ± 0.042

ACAGTTAGGT
switch fluorescence ratio: 0.992 ± 0.034

TCTTTACCGA
switch fluorescence ratio: 1.02 ± 0.036

GGACCAAACG
switch fluorescence ratio: 1.05 ± 0.024

TTCGATTACG
switch fluorescence ratio: 1.03 ± 0.018

GCTATAGAAT
switch fluorescence ratio: 1.01 ± 0.028

ACTCTATAAT
switch fluorescence ratio: 1.146 ± 0.0092

TCATTTATCA
switch fluorescence ratio: 1 ± 0.053

GGGTGGGCTT
switch fluorescence ratio: 0.997 ± 0.032

AGAAAAGGGG
switch fluorescence ratio: 1.01 ± 0.054

GTGAGGGGGA
switch fluorescence ratio: 1 ± 0.033

AGTTTTTTCG
switch fluorescence ratio: 0.973 ± 0.023

TGTGTTTATA
switch fluorescence ratio: 1.013 ± 0.0095

GGAGTTTGAC
switch fluorescence ratio: 1.05 ± 0.068

GGGCTAAGGG
switch fluorescence ratio: 0.985 ± 0.056

AGATGAGGCG
switch fluorescence ratio: 1 ± 0.068

CCTGGCGATG
switch fluorescence ratio: 1.38 ± 0.053

GCAGGAAATG
switch fluorescence ratio: 0.992 ± 0.011

AATTCGTTGG
switch fluorescence ratio: 0.993 ± 0.026

TATAGTGGCG
switch fluorescence ratio: 1.02 ± 0.051

AGGGGGCATG
switch fluorescence ratio: 0.986 ± 0.023

TAGGTTCGAG
switch fluorescence ratio: 0.985 ± 0.011

TAGCGGGGCT
switch fluorescence ratio: 1.04 ± 0.043

GCCTAGCATA
switch fluorescence ratio: 1.02 ± 0.018

AAGTTTTGTG
switch fluorescence ratio: 0.9869 ± 0.0074

TAGCAGGGTT
switch fluorescence ratio: 0.9852 ± 0.0061

TCTGGGGTTA
switch fluorescence ratio: 1 ± 0.018

AAAAGACGGT
switch fluorescence ratio: 1.015 ± 0.0016

CGGGACGCGT
switch fluorescence ratio: 1.021 ± 0.0039

CTGTTTGTGC
switch fluorescence ratio: 0.975 ± 0.013

TTTTTATTAA
switch fluorescence ratio: 0.989 ± 0.033

CGGTTTGGCT
switch fluorescence ratio: 1.08 ± 0.12

ATTACCTGTT
switch fluorescence ratio: 1.03 ± 0.047

GAGCGGGGGA
switch fluorescence ratio: 1.03 ± 0.017

TGAGGGCGTT
switch fluorescence ratio: 0.995 ± 0.031

GGCAGGTGTT
switch fluorescence ratio: 1.73 ± 0.85

AACCAGTATA
switch fluorescence ratio: 0.995 ± 0.024

ATTAATTCGT
switch fluorescence ratio: 0.996 ± 0.071

GCCTTTTCTG
switch fluorescence ratio: 0.962 ± 0.031

GTAATAATGG
switch fluorescence ratio: 0.988 ± 0.053

GTTGGCGGGA
switch fluorescence ratio: 1.02 ± 0.042

AGTGGACGGG
switch fluorescence ratio: 0.994 ± 0.023

AATTCCGATG
switch fluorescence ratio: 1.29 ± 0.076

GTGTCGCGGG
switch fluorescence ratio: 0.962 ± 0.013

GGGATTGGGA
switch fluorescence ratio: 0.99 ± 0.045

AGAACGGTAT
switch fluorescence ratio: 1.048 ± 0.0034

CATGAATGGA
switch fluorescence ratio: 1.01 ± 0.017

TTAATAAGTG
switch fluorescence ratio: 0.964 ± 0.028

ATTTATGAGG
switch fluorescence ratio: 1.01 ± 0.016

CGTTGTTGGT
switch fluorescence ratio: 1.015 ± 0.009

GGCTCAATGG
switch fluorescence ratio: 1.04 ± 0.031

GCCTCAAGTT
switch fluorescence ratio: 1.03 ± 0.052

TTATATCGGT
switch fluorescence ratio: 0.971 ± 0.011

GAATTTCGGG
switch fluorescence ratio: 0.996 ± 0.013

ATCGGGGGTG
switch fluorescence ratio: 0.982 ± 0.036

GTTTGCCTCT
switch fluorescence ratio: 0.995 ± 0.012

TACAAGCCTA
switch fluorescence ratio: 1.011 ± 0.0014

CGAGGGAGCA
switch fluorescence ratio: 1.01 ± 0.025

AAAATGTAGG
switch fluorescence ratio: 0.957 ± 0.03

TCTTGTAATC
switch fluorescence ratio: 1.07 ± 0.055

AGGGATGTCT
switch fluorescence ratio: 1.02 ± 0.043

AAAATTGTTT
switch fluorescence ratio: 1.01 ± 0.031

AGTGTATACT
switch fluorescence ratio: 0.9886 ± 0.0021

GGTATCCGTG
switch fluorescence ratio: 1.019 ± 0.0085

TTTTCAGGGG
switch fluorescence ratio: 1.03 ± 0.049

GACTTGGAAT
switch fluorescence ratio: 1 ± 0.041

TAGGTGTGTT
switch fluorescence ratio: 0.981 ± 0.019

TTAAAAAATT
switch fluorescence ratio: 1.02 ± 0.039

TACTATTTTA
switch fluorescence ratio: 1 ± 0.016

GCTGATACGG
switch fluorescence ratio: 1.07 ± 0.027

ATGTCAGCGC
switch fluorescence ratio: 1 ± 0.044

CACGGCTATG
switch fluorescence ratio: 1.06 ± 0.046

ATGAGTGACC
switch fluorescence ratio: 1.02 ± 0.016

CGTAATCATC
switch fluorescence ratio: 1.13 ± 0.023

TTATCGATTT
switch fluorescence ratio: 0.995 ± 0.028

TTGGTTAGTT
switch fluorescence ratio: 0.981 ± 0.027

ATATGTAGGT
switch fluorescence ratio: 0.998 ± 0.049

TGATTAGAGT
switch fluorescence ratio: 1.01 ± 0.016

AAGGGAGGCG
switch fluorescence ratio: 1.14 ± 0.2

TGGGGTATAA
switch fluorescence ratio: 1.001 ± 0.0042

AATTTCACGG
switch fluorescence ratio: 1.03 ± 0.066

GAGGGCAGGG
switch fluorescence ratio: 0.978 ± 0.034

TTTGGGTGTT
switch fluorescence ratio: 1.02 ± 0.046

CAGGTTGATG
switch fluorescence ratio: 1.01 ± 0.032

TGTTTAGCTT
switch fluorescence ratio: 1.024 ± 0.0066

CCCCCGGGGT
switch fluorescence ratio: 1.83 ± 0.38

GGTAGTCCAC
switch fluorescence ratio: 1.01 ± 0.027

ATCGACTTTT
switch fluorescence ratio: 1.015 ± 0.003

GAAGCGGGGC
switch fluorescence ratio: 1.36 ± 0.064

ACGGTGGACT
switch fluorescence ratio: 1 ± 0.035

GTCAGGGCGA
switch fluorescence ratio: 0.9931 ± 0.0023

TCTATGAGGC
switch fluorescence ratio: 0.988 ± 0.024

CGTCAAGGTG
switch fluorescence ratio: 1.42 ± 0.24

CACAGCTAAA
switch fluorescence ratio: 1.09 ± 0.018

TAAAGGGGTG
switch fluorescence ratio: 1.01 ± 0.038

TTGGTTGGTT
switch fluorescence ratio: 0.978 ± 0.019

GTTTGCCCAA
switch fluorescence ratio: 0.987 ± 0.037

TTCTATACCG
switch fluorescence ratio: 0.982 ± 0.036

GGGTTGGCGT
switch fluorescence ratio: 0.956 ± 0.012

CTCTTCTGGT
switch fluorescence ratio: 0.971 ± 0.04

AGGGAGTAGG
switch fluorescence ratio: 1.12 ± 0.029

AGGCAGACCG
switch fluorescence ratio: 1.03 ± 0.07

ACAGGACGGA
switch fluorescence ratio: 1.03 ± 0.013

GTAGGGTAAG
switch fluorescence ratio: 0.988 ± 0.039

GGTGTGCAAG
switch fluorescence ratio: 0.947 ± 0.04

TACAGCTGGG
switch fluorescence ratio: 1.01 ± 0.016

AGCCCGTTTG
switch fluorescence ratio: 0.964 ± 0.053

AGCAACATTG
switch fluorescence ratio: 1.01 ± 0.06

TCAACCCTTA
switch fluorescence ratio: 1.03 ± 0.038

CATAGGGCTT
switch fluorescence ratio: 0.963 ± 0.025

ATAGTATTAT
switch fluorescence ratio: 0.968 ± 0.015

GCTAAAGTCT
switch fluorescence ratio: 1.043 ± 0.0085

ATTTAGTTCT
switch fluorescence ratio: 0.981 ± 0.027

ATTAGAGGTT
switch fluorescence ratio: 0.9898 ± 0.0094

AATGATGCCT
switch fluorescence ratio: 0.995 ± 0.036

AGTTTTTGAG
switch fluorescence ratio: 1 ± 0.013

GACCTATTCG
switch fluorescence ratio: 1.01 ± 0.018

TTTGCGGGGT
switch fluorescence ratio: 1.03 ± 0.034

TCCAGCTAAA
switch fluorescence ratio: 1.09 ± 0.014

ATACCGGTTG
switch fluorescence ratio: 1.02 ± 0.015

CTCGTAATTG
switch fluorescence ratio: 1.09 ± 0.052

ATTTGCATGC
switch fluorescence ratio: 1 ± 0.012

CTCGGACCTT
switch fluorescence ratio: 1.19 ± 0.017

TTGCAGGTGT
switch fluorescence ratio: 1.85 ± 0.47

TTAGTTGATA
switch fluorescence ratio: 1.01 ± 0.018

CAAGTTGACC
switch fluorescence ratio: 1.01 ± 0.046

GATCATAATG
switch fluorescence ratio: 1.01 ± 0.021

TAGGGCTGCA
switch fluorescence ratio: 1.06 ± 0.079

AGTAATTGCG
switch fluorescence ratio: 0.982 ± 0.034

TCTACGGTGC
switch fluorescence ratio: 1.5 ± 0.24

TCATAGATTT
switch fluorescence ratio: 0.988 ± 0.013

TGGGTTAATC
switch fluorescence ratio: 1.01 ± 0.052

GACTTTTTAG
switch fluorescence ratio: 0.9801 ± 0.0065

ATGGGATGGG
switch fluorescence ratio: 1 ± 0.025

TGGGGACAAA
switch fluorescence ratio: 0.986 ± 0.019

AATGGGGGAA
switch fluorescence ratio: 0.9881 ± 0.0087

TGGGCGGTGT
switch fluorescence ratio: 0.992 ± 0.037

GGATGGGTCG
switch fluorescence ratio: 1.02 ± 0.083

GTCGTAGCTT
switch fluorescence ratio: 1.058 ± 0.0089

TGGGCTGGTA
switch fluorescence ratio: 0.972 ± 0.025

CAGGGTGTGC
switch fluorescence ratio: 1.012 ± 0.00054

CAGGGCGTGG
switch fluorescence ratio: 0.948 ± 0.038

TGTTTGTAAA
switch fluorescence ratio: 1.01 ± 0.029

TAGGGGAGAC
switch fluorescence ratio: 1.06 ± 0.047

GTTGCCAAAG
switch fluorescence ratio: 0.9726 ± 0.0022

CAGCAGGGGC
switch fluorescence ratio: 1.11 ± 0.024

TATCCTGTTT
switch fluorescence ratio: 1.04 ± 0.011

TGTGGGGACC
switch fluorescence ratio: 1.05 ± 0.05

ATATGGTGCT
switch fluorescence ratio: 1.004 ± 0.0074

GGTTTATTGG
switch fluorescence ratio: 1 ± 0.03

GTTTTTATTT
switch fluorescence ratio: 0.976 ± 0.031

TGGGGCAGGG
switch fluorescence ratio: 1.44 ± 0.62

ATGGTGGCAT
switch fluorescence ratio: 1.01 ± 0.012

AGATCTGGAG
switch fluorescence ratio: 0.9982 ± 0.0069

GGGTAATTGG
switch fluorescence ratio: 0.986 ± 0.018

AGGGAGATAA
switch fluorescence ratio: 1.14 ± 0.17

GTGATGGTT
switch fluorescence ratio: 0.984 ± 0.03

TTGGGGGCTA
switch fluorescence ratio: 1 ± 0.04

GTCTCAAGTT
switch fluorescence ratio: 1.02 ± 0.011

GGTCATAGAC
switch fluorescence ratio: 0.991 ± 0.026

AGGGGGCTTT
switch fluorescence ratio: 0.985 ± 0.021

GGCAGTATTT
switch fluorescence ratio: 1.0371 ± 0.00098

GGGTTCGGAA
switch fluorescence ratio: 0.9972 ± 0.0093

ATAGGCTAGT
switch fluorescence ratio: 1.02 ± 0.025

GTGGGGTAGT
switch fluorescence ratio: 0.995 ± 0.018

ACCATGGGCC
switch fluorescence ratio: 1.01 ± 0.018

GAAGTATGGG
switch fluorescence ratio: 0.956 ± 0.024

GTTTTTCTTA
switch fluorescence ratio: 0.978 ± 0.037

CATATAAACT
switch fluorescence ratio: 1.039 ± 0.0047

AATCTTGTTG
switch fluorescence ratio: 0.998 ± 0.021

TTGTTATTCG
switch fluorescence ratio: 1.01 ± 0.087

GGTCTTCCGC
switch fluorescence ratio: 1.14 ± 0.088

CGAGAGGGTG
switch fluorescence ratio: 1.03 ± 0.02

TTTTCGCATT
switch fluorescence ratio: 1.23 ± 0.051

ATATGCTCAC
switch fluorescence ratio: 1.05 ± 0.03

ATTTGCATAC
switch fluorescence ratio: 2.62 ± 0.39

TTTGGTGCTT
switch fluorescence ratio: 0.974 ± 0.045

TTGCCGCACG
switch fluorescence ratio: 1.15 ± 0.024

GTTGTGGTTC
switch fluorescence ratio: 0.96755 ± 0.00092
